Reference: publication PMC2265524, “ruvA Mutants That Resolve Holliday Junctions but Do Not Reverse Replication Forks” (PLoS Genetics, 2008)

B1: F1 (fork, one arm single-stranded) (structured_DNA)
DNA 1: GACGCTGCCGAATTCTACCAGTGCCTTGCTAGGACATCTTTGCCCACCTGCAGGTTCACCC
DNA 2: ATGGATAGTCGGATCCTCTAGACAGCTCCATGTAGCAAGGCACTGGTAGAATTCGGCAGCGT
DNA 3: TGGGTGAACCTGCAGGTGGGCAAAGATGTCC
B2: F2 (fork, three double-stranded arms) (structured_DNA)
DNA 1: GACGCTGCCGAATTCTACCAGTGCCTTGCTAGGACATCTTTGCCCACCTGCAGGTTCACCC
DNA 2: ATGGATAGTCGGATCCTCTAGACAGCTCCATGTAGCAAGGCACTGGTAGAATTCGGCAGCGT
DNA 3: TGGGTGAACCTGCAGGTGGGCAAAGATGTCC
DNA 4: CATGGAGCTGTCTAGAGGATCCGACTATCGA

Tests used:
RuvAz87 [1] = biological target: T1, RuvAz87 (Escherichia coli, UniProt P0A809 1-203, N79D;N100D); assay: EMSA; 5 mM EDTA; EMSA with ~4-5 ng labelled DNA; 5 mM EDTA (gel 0.5x TBE) or 3 mM MgCl2 without EDTA (gel 0.5x TB + 200 uM MgCl2); buffer as in cited ref 18; salt, pH and temperature not stated; settings: protein: recombinant; chain copies: 4; label: 5' IRD700 on S24 (IT.01); fork of 3 strands; two arms double-stranded, one single-stranded (5' part of strand 2)
T1 sequence: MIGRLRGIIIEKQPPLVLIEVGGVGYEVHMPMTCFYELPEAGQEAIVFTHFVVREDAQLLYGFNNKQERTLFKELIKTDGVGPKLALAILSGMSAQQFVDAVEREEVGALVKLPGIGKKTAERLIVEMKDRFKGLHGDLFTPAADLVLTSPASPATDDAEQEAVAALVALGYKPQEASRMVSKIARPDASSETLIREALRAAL

RuvAz3 [2] = biological target: T2, RuvAz3 (Escherichia coli, UniProt P0A809 1-203, H29R;K129E;F140S); assay: as above; settings: protein: recombinant; chain copies: 4; label: 5' IRD700 on S24 (IT.01); fork of 3 strands; two arms double-stranded, one single-stranded (5' part of strand 2)
T2 sequence: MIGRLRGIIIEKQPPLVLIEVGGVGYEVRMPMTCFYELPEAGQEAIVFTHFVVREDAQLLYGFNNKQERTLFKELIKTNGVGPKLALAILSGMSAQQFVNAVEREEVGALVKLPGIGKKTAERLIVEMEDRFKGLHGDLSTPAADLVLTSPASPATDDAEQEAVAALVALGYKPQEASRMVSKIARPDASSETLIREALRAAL

RuvAz87 [3] = biological target: T1, RuvAz87; assay: EMSA; 3 mM Mg2+; EMSA with ~4-5 ng labelled DNA; 5 mM EDTA (gel 0.5x TBE) or 3 mM MgCl2 without EDTA (gel 0.5x TB + 200 uM MgCl2); buffer as in cited ref 18; salt, pH and temperature not stated; settings: protein: recombinant; chain copies: 4; label: 5' IRD700 on S24 (IT.01); three-arm fork of 4 strands, all arms double-stranded
RuvAz3 [4] = biological target: T2, RuvAz3; assay: as above; settings: protein: recombinant; chain copies: 4; label: 5' IRD700 on S24 (IT.01); three-arm fork of 4 strands, all arms double-stranded

Row | Binder | binding result (RuvAz87 [1]) | binding result (RuvAz3 [2]) | binding result (RuvAz87 [3]) | binding result (RuvAz3 [4])
1 | B1 | no binding | no binding | – | –
2 | B2 | – | – | no binding | no binding
